Test results: US20250346655 (published 2025)

What was measured:
[1] = biological target: alpha-synuclein sonicated fibrils (human, UniProt P37840); experiment: SPR
alpha-synuclein oligomer = alpha-synuclein oligomer (human, UniProt P37840); experiment: SPR
[2] = biological target: alpha-synuclein physiologic tetramer (human, UniProt P37840); experiment: SPR
alpha-synuclein monomer = alpha-synuclein monomer (human, UniProt P37840); experiment: SPR
beta-synuclein monomer = beta-synuclein monomer (human, UniProt Q16143); experiment: ELISA
gamma-synuclein monomer = gamma-synuclein monomer (human, UniProt O76070); experiment: ELISA
Sequence of gamma-synuclein monomer (O76070 whole entry): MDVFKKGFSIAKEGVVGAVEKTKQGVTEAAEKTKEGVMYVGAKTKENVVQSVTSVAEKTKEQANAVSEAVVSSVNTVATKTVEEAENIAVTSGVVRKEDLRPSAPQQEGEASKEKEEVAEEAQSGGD

Sequence of beta-synuclein monomer (Q16143 whole entry): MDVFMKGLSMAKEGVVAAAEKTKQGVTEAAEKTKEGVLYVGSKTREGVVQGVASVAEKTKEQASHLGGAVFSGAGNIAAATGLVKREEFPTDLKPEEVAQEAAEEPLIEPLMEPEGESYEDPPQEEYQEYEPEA

Row | Binder | Kd [1] | Kd (alpha-synuclein oligomer) | binding result [2] | binding result (alpha-synuclein monomer) | binding result (beta-synuclein monomer) | binding result (gamma-synuclein monomer)
1 | 12B12 (antibody, V domains shown) VH: EVQLQQSGAELVKPGASVKLSCTASGFNIKDTYIHWVKQRPEQGLEWIGRIDPANGNTNYDPKFQDKATITADTSSNTAYLQFSSLTSEDTAVYYCSNWDYFDYWGQGTTLTVSS VL: not shown | 8 nM | 985 nM | no binding | no binding |  | 
2 | 2E9 (antibody, V domains shown) VH: EVKLLESGGGLVQPGGSLKLSCAASGFDFSRYWMNWVRQAPGKGLEWIGEINPHSSTINYAPSLKDKFIISRDNAKNTLYLQMSKVRSEDTALYYCGRGDYVDYWGLGTTLTVSS VL: DIVMSQSPSSLAVSVGEKVTMSCKSSQSLLYSRNQKNYLAWYQQKPGQSPKLLIYWASTRESGVPDRFTGSGSGTDFTLTISSVKADDLAVYYCQQYYSYPRTFGGGTKLEIK | 9 nM | 431 nM | no binding | no binding | no binding | no binding
3 | 12G1 (antibody, V domains shown) VH: QIQLVQSGPELRKPGETVRISCKASGYTFTTAGMQWVQKMPGKGLKWIGWINTHSGVPKYAEDFKGRFAFSLETSASTAYLQISNLKNEDTATYFCARTSWAPYWGQGTLVTVSA VL: not shown | 20 nM | 1610 nM | no binding | no binding |  | 
